Source: US20240376204A1 (JIANGSU HENGRUI PHARMACEUTICALS, published 2024)
Numbering of substitutions follows the chain as printed. In names and notes the source's numbering stands.

T1: his-tagged human PVRIG (h-PVRIG-his) recombinant protein (human, UniProt Q6DKI7 41-171, limits assumed)
T1 construct: Acrobiosystems; also called Human PVRIG-his; human PVRIG recombinant protein; not shown: his tag
T1 sequence (looked up): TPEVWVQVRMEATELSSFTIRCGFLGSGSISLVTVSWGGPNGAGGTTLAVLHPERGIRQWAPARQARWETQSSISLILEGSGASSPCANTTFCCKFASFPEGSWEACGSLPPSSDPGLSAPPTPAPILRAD

T2: human PVRIG expressed on cells (human, UniProt Q6DKI7 41-326)
T2 sequence (looked up): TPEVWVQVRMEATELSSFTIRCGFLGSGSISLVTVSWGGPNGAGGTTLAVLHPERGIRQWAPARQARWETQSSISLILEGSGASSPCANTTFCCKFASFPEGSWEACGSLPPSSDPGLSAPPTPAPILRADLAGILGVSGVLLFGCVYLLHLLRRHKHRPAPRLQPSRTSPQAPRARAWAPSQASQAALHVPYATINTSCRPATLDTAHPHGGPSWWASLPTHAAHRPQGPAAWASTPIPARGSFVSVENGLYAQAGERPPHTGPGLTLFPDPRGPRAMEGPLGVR

T3: human TIGIT recombinant protein (human, UniProt Q495A1 22-141)
T3 construct: also called human TIGIT antigen (AcroBiosystem, TIT-H52H3); TIGIT protein
T3 sequence (looked up): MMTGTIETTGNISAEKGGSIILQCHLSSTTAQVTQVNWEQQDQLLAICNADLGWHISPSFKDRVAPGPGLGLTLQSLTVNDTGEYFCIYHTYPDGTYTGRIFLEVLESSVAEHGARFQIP

B1: A17h1-1708-151H7-B (trispecific antibody, human IgG4 S228P, kappa)
heavy: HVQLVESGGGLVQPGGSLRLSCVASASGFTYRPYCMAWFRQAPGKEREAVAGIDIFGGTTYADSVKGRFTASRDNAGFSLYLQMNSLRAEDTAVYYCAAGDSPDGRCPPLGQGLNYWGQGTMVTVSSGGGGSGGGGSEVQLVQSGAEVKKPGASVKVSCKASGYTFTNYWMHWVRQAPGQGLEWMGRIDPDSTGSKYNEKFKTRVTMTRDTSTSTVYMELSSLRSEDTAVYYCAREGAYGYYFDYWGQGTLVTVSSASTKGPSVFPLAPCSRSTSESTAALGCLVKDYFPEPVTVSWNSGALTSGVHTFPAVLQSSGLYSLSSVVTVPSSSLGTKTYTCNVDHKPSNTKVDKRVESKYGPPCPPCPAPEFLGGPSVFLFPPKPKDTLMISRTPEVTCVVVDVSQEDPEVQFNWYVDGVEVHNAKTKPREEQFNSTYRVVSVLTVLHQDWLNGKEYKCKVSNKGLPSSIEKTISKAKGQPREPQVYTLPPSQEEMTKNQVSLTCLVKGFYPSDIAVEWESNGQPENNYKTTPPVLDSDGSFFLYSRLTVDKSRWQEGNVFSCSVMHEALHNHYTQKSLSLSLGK
light: EVQLQESGGGLVQPGGSLRLSCTASGLTFSDYSMSWYRQAPGKGRELVAIISGSGVIAHYVDSVKGRFTISRDNSKNTVYLQMRSLTPEDRAVYYCRAVSDWDDYWGQGTQVTVSSGGGGSGGGGSDIQMTQSPSSLSASVGDRVTITCRASENIYSYLAWYQQKPGKSPKLLIYNARTLAEGVPSRFSGSGSGTDFTLTISSLQPEDFATYYCQYHSGSPLPFGGGTKVEIKRTVAAPSVFIFPPSDEQLKSGTASVVCLLNNFYPREAKVQWKVDNALQSGNSQESVTEQDSKDSTYSLSSTLTLSKADYEKHKVYACEVTHQGLSSPVTKSFNRGEC
B2: A17h1-1708-151H7-C (trispecific antibody, human IgG4 S228P, kappa)
heavy: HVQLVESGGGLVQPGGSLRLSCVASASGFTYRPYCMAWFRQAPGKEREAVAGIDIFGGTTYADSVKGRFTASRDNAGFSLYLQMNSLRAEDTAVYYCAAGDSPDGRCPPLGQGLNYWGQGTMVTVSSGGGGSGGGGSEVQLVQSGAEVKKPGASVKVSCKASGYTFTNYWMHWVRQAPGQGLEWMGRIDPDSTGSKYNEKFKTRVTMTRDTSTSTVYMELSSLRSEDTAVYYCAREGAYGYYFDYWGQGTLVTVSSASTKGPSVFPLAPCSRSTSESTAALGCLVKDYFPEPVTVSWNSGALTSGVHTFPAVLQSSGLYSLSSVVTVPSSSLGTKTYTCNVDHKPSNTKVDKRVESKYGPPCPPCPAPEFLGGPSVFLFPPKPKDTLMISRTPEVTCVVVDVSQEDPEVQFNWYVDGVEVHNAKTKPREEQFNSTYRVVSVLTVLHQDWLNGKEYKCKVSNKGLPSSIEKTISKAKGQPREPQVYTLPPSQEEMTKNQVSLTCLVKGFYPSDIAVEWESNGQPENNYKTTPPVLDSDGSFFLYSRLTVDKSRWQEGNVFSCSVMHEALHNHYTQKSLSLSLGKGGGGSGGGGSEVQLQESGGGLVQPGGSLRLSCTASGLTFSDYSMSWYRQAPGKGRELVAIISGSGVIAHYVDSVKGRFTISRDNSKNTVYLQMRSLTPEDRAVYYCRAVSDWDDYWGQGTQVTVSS
light: DIQMTQSPSSLSASVGDRVTITCRASENIYSYLAWYQQKPGKSPKLLIYNARTLAEGVPSRFSGSGSGTDFTLTISSLQPEDFATYYCQYHSGSPLPFGGGTKVEIKRTVAAPSVFIFPPSDEQLKSGTASVVCLLNNFYPREAKVQWKVDNALQSGNSQESVTEQDSKDSTYSLSSTLTLSKADYEKHKVYACEVTHQGLSSPVTKSFNRGEC
notes: Type C
B3: 30H2 (Fc fusion, not shown: a dimerising Fc or GST)
chain: EVQLVESGGGLVQPGGSLRLSCAASGFTFSGDCMGWFRQAPGKGLDEGVATIDNAGRIKYADSVKGRFTISRDNAKNSLYLQMNSLRAEDTAVYYCAAGWTFGGQCSPADWGQGTQVTVSS
B4: 30H3 (Fc fusion, not shown: a dimerising Fc or GST)
chain: B3 chain with F27Y, T28S, F29Y
B5: 151H7 (Fc fusion, not shown: a dimerising Fc or GST)
chain: HVQLVESGGGLVQPGGSLRLSCVASASGFTYRPYCMAWFRQAPGKEREAVAGIDIFGGTTYADSVKGRFTASRDNAGFSLYLQMNSLRAEDTAVYYCAAGDSPDGRCPPLGQGLNYWGQGTMVTVSS
B6: A17h1-1708-30H2-A (trispecific antibody, human IgG4 S228P, kappa)
heavy: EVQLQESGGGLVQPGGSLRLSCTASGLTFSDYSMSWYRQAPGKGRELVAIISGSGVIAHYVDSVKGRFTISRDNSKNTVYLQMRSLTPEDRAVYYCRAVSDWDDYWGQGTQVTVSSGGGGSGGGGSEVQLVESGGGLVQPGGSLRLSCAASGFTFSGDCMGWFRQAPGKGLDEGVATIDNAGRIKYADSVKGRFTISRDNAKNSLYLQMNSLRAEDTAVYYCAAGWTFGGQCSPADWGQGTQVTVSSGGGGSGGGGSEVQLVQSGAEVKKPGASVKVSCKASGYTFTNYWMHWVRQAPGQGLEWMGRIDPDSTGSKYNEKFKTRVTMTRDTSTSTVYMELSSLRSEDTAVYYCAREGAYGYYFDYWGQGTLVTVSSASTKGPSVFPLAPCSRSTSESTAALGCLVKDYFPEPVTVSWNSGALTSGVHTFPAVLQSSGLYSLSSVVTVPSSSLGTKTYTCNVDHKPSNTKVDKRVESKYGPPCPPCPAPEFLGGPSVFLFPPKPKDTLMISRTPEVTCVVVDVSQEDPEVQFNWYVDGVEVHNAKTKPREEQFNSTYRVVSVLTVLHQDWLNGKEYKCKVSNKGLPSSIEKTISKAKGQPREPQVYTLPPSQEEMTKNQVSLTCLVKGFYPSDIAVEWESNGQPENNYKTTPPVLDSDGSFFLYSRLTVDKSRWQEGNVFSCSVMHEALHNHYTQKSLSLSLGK
light: B2 light
B7: A17h1-1708-30H2-B (trispecific antibody, human IgG4 S228P, kappa)
heavy: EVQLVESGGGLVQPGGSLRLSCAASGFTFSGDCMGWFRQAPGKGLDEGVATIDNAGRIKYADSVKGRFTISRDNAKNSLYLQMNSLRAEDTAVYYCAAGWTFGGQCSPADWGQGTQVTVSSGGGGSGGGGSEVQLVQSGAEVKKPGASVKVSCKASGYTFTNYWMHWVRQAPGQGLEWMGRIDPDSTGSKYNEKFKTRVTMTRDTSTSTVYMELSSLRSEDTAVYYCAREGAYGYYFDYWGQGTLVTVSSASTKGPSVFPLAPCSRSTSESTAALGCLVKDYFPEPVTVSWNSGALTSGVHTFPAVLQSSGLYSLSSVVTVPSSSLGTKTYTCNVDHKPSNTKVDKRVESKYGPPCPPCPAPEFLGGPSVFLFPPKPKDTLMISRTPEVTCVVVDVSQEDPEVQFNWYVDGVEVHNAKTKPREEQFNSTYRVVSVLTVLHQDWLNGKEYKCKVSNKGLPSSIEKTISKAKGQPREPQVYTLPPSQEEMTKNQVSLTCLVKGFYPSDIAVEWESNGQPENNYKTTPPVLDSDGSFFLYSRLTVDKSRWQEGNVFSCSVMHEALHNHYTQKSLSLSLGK
light: B1 light
B8: A17h1-1708-30H2-C (trispecific antibody, human IgG4 S228P, kappa)
heavy: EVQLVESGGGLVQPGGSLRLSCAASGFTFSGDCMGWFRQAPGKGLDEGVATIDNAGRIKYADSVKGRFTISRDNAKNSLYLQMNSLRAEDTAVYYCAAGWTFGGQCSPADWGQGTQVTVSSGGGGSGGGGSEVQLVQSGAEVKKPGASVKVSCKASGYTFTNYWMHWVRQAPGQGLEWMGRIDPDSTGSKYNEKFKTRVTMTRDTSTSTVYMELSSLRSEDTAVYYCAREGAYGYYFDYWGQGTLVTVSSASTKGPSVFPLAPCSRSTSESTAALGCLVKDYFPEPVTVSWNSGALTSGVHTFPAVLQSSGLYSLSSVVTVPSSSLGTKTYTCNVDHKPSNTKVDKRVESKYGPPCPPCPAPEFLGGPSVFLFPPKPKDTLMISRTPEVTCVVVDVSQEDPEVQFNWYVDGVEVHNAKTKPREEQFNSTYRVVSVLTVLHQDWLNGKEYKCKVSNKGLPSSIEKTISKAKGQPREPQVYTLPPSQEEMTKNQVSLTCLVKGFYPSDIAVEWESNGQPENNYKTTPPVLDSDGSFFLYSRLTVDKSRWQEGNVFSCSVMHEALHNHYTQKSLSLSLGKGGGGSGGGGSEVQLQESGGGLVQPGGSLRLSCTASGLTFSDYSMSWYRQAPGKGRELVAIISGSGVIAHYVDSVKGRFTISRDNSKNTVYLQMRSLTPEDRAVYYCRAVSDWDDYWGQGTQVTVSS
light: B2 light
notes: Type C
B9: A17h1-1708-30H2-D (trispecific antibody, human IgG4 S228P, kappa)
heavy: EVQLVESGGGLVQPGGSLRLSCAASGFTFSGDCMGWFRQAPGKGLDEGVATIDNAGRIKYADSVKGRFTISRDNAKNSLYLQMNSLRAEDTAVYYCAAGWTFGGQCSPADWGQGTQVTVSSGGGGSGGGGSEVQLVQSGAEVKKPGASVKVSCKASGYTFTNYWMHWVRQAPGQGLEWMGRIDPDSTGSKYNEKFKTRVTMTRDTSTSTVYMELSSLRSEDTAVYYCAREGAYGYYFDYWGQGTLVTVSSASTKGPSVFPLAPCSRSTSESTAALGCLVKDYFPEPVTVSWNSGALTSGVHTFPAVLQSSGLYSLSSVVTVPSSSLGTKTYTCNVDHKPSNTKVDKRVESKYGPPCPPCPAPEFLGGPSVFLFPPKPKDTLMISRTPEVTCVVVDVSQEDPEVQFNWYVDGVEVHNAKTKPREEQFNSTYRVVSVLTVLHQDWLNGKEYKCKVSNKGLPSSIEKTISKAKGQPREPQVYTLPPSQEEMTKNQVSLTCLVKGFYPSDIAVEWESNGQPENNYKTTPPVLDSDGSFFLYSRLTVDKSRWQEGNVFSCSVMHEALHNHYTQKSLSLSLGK
light: DIQMTQSPSSLSASVGDRVTITCRASENIYSYLAWYQQKPGKSPKLLIYNARTLAEGVPSRFSGSGSGTDFTLTISSLQPEDFATYYCQYHSGSPLPFGGGTKVEIKRTVAAPSVFIFPPSDEQLKSGTASVVCLLNNFYPREAKVQWKVDNALQSGNSQESVTEQDSKDSTYSLSSTLTLSKADYEKHKVYACEVTHQGLSSPVTKSFNRGECGGGGSGGGGSEVQLQESGGGLVQPGGSLRLSCTASGLTFSDYSMSWYRQAPGKGRELVAIISGSGVIAHYVDSVKGRFTISRDNSKNTVYLQMRSLTPEDRAVYYCRAVSDWDDYWGQGTQVTVSS
B10: 1708-151H7 (bispecific antibody, human IgG4 S228P, kappa)
heavy: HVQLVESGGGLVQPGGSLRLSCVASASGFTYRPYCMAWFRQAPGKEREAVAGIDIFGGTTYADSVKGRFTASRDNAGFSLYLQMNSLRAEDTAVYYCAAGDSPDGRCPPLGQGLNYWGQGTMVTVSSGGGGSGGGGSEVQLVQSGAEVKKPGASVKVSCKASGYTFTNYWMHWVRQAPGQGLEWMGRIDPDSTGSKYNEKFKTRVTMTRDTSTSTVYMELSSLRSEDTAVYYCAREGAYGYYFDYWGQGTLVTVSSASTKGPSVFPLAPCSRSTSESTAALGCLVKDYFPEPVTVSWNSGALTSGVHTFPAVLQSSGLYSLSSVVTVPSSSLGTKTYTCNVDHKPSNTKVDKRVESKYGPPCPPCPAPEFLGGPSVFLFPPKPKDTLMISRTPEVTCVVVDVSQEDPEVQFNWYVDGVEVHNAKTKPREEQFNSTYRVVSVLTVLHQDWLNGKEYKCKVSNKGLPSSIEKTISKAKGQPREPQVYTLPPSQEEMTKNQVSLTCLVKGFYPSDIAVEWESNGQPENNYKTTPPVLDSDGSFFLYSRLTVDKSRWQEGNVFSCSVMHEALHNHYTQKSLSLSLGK
light: B2 light
notes: Humanized anti-PVRIG/TIGIT
B11: 1708-30H2 (bispecific antibody, human IgG4 S228P, kappa)
heavy: not shown
light: B2 light
notes: Humanized anti-PVRIG/TIGIT
B12: A17m0902-1708-151H7-01-C (trispecific antibody, human IgG4 S228P, kappa)
heavy: not shown
light: B2 light
notes: Type C; first residue of the 151H7 part changed from H to E; also called 151H7 H1E trispecific
B13: A17m0902-1708-151H7-02-C (trispecific antibody, human IgG4 S228P, kappa)
heavy: not shown
light: B2 light
notes: Type C; first residue of the 151H7 part changed from H to Q; also called 151H7 H1Q trispecific
B14: A17m0902-1708-151H7-C (trispecific antibody, human IgG4 S228P, kappa)
heavy: not shown
light: B2 light
notes: Type C; also called A17m0902-151H7-C

Legend:
[1] = biological target: T4, human PD-1 expressed on cells (human, UniProt Q15116 25-288); assay: cell-based or functional assay
[2] = biological target: T4, human PD-1 expressed on cells; assay: cell-based or functional assay; remark: listed apart in the source
[3] = biological target: T1, his-tagged human PVRIG (h-PVRIG-his) …; assay: ELISA, plate coated with PVRIG protein (his tag)
Method: (§1) ELISA assays were performed. TIGIT or PVRIG protein (his tag, Acrobiosystems, PVG-H52H4) was dissolved in PBS to 1 μg/mL, and the solution was added to a 96-well plate at 100 μL/well. The plate was coated with the antigen overnight at 4° C. The plate was washed with PBST solution three times. PBST/1% BSA solution was added, and the plate was incubated at 37° C. for 1 h for blocking. After three washes with PBST solution, different concentrations of the trispecific antibodies (diluted with PBST/1% BSA solution) were added, and the plate was incubated at 37° C. for 1.5 h. The plate was washed with PBST solution three times. […] After three washes with PBST solution, TMB solution was added at 100 μL/well. After 5 min of reaction at room temperature, 50 μL of stop solution was added. OD450 values were measured using a microplate reader, and EC₅₀ was calculated.

[4] = biological target: T2, human PVRIG expressed on cells; assay: cell-based or functional assay
[5] = biological target: T4, human PD-1 expressed on cells; assay: cell-based or functional assay; remark: listed apart in the source
[6] = biological target: T3, human TIGIT recombinant protein; assay: ELISA, plate coated with TIGIT protein
Method: as §1

[7] = biological target: T2, human PVRIG expressed on cells; assay: FACS, HEK293F cells expressing human PVRIG
Method: A stably transfected HEK293F cell strain expressing the human PVRIG gene, a stably transfected CHO-K1 cell strain expressing the human TIGIT gene, and Jurkat cells expressing human PD-1 were used. The cell strain was inoculated into a 96-well plate at 2×10⁵ cells/well. The plate was centrifuged at 300 g for 5 min, and the supernatant was removed. 100 μL of test antibody was added, and the plate was incubated at 4° C. for 1 h. The plate was centrifuged, and the supernatant was removed. The plate was washed 3 times with 200 μL of wash buffer (PBS+2% FBS), and 100 μL of an Alexa Fluor 488-labeled anti-human IgG secondary antibody (Invitrogen, A-11013) diluted at 1:500 was added. The plate was incubated at 4° C. for 1 h. The plate was centrifuged, and the supernatant was removed. The plate was washed 3 times with 200 μL of wash buffer (PBS+2% FBS). The cells were resuspended in 100 μL of PBS and tested on a flow cytometer (BD FACS Calibur or BD FACS Canto_ II).

T4 sequence (Q15116 25-288 limits assumed): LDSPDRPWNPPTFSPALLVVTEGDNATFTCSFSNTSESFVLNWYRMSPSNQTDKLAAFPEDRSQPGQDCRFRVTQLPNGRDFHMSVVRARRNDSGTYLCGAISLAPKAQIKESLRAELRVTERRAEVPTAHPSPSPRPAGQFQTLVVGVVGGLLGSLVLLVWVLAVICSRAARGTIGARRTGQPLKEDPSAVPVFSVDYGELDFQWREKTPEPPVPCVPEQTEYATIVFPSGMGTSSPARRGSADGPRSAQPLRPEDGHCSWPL

Row | Binder | DC:T MLR result, 0.1 nM antibody (unit not given) [1] | DC:T MLR result, 1 nM antibody (unit not given) [1] | DC:T MLR result, 10 nM antibody (unit not given) [1] | DC:T MLR result, 100 nM antibody (unit not given) [1] | IC50 (read off the curve) [2] [nM] | EC50 [3] [nM] | PVRIG reporter gene cell activity EC50 [4] [nM] | IC50, PD-1/PD-L1 NFAT reporter gene system [5] [nM] | EC50 [6] [nM] | EC50 [7] [nM] | EMAX [7]
1 | B1 | 108 | 97.8 | 136 | 148 | ~0.4 | 0.154 |  |  |  |  | 
2 | B2 | 118 | 136 | 151 | 152 | ~0.8 | 0.16 |  |  |  |  | 
3 | B3 |  |  |  |  |  |  | 0.176 |  |  |  | 
4 | B4 |  |  |  |  |  |  | 0.078 |  |  |  | 
5 | B5 |  |  |  |  |  |  | 0.038 |  |  |  | 
6 | B6 | 118 | 118 | 124 | 128 |  | 0.0589 |  | 0.801 | 0.0875 |  | 
7 | B7 | 108 | 137 | 125 | 134 |  | 0.0583 |  | 0.344 | 0.107 |  | 
8 | B8 | 133 | 131 | 123 | 149 |  | 0.0822 |  | 0.264 | 0.0951 |  | 
9 | B9 | 115 | 116 | 122 | 136 |  | 0.0885 |  | 0.825 | 0.113 |  | 
10 | B10 |  |  |  |  |  | 0.125 |  |  |  | 0.112 | 1360
11 | B11 |  |  |  |  |  | 0.0846 |  |  | 0.116 |  | 
12 | B12 |  |  |  |  |  |  |  |  |  | 0.105 | 1550
13 | B13 |  |  |  |  |  |  |  |  |  | 0.0964 | 1520
14 | B14 |  |  |  |  |  |  |  |  |  | 0.0944 | 1520
